# In paper PMC9688306, “Construction of Aptamer-Based Nanobiosensor for Breast Cancer Biomarkers Detection Utilizing g-C3N4/Magnetic Nano-Structure”:
# Target: CA 15-3 (Cancer Antigen 15-3) (UniProt P15941 24-1097)
# Assay: electrochemical aptasensor (CV, SWV, EIS); label-free, ferri/ferrocyanide redox probe; aptamer on g-C3N4/Fe3O4; linear 10-90 U/mL; PBS pH 7.4 (0.1 M), room temperature, 35 min incubation; 0.2 mM ferricyanide probe (label-free) or methylene blue in PBS (label-based)
# Sequence of CA 15-3 (Cancer Antigen 15-3) (P15941 24-1097): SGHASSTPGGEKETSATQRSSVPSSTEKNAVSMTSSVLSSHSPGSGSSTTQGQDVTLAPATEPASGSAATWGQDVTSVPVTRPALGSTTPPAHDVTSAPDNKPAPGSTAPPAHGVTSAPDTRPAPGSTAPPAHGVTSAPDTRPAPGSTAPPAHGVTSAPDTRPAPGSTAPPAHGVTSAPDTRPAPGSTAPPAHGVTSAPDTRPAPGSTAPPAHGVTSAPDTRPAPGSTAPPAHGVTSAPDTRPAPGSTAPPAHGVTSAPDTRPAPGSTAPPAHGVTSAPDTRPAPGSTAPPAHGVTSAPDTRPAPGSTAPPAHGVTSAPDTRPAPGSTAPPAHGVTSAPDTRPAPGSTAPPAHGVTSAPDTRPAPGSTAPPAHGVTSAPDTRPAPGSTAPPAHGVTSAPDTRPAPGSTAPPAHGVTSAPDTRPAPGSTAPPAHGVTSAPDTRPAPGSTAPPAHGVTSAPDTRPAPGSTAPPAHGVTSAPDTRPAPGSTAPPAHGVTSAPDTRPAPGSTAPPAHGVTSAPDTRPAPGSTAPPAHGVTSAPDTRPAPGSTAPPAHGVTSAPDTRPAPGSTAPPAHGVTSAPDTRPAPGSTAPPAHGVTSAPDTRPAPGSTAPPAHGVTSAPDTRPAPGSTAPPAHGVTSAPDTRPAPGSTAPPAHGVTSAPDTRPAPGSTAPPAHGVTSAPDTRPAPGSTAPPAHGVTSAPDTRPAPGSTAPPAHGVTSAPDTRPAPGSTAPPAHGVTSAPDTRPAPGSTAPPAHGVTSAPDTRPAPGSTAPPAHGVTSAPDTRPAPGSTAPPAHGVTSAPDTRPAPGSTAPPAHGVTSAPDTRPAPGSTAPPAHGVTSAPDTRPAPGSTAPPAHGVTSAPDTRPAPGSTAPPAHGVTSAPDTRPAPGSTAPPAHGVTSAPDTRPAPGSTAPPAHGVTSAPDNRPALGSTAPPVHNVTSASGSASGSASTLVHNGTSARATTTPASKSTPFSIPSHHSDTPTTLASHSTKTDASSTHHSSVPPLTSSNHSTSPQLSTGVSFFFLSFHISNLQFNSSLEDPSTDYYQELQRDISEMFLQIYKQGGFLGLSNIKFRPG
binder,measurement,value
GAAGTGAATATGACAGATCACAACT (ssDNA) [CA 15-3 aptamer],binding result,binds
